The record followed here is patent publication US20170281764A1 (JN BIOSCIENCES, published 2017).

Common to all, as to assay: flow cytometry titration on CHO-K1 cells transiently expressing the HA-tagged TIGIT mutant, Alexa488 anti-human IgG detection, four-parameter fit of percent of control, nM is from the concentration axis and paragraph 252
Test [1] deals with T1, HA-tagged human TIGIT with mutation N37A, on CHO-K1 cells (human, UniProt Q495A1 22-244).
T1 construct: Built as for m17
T1 sequence: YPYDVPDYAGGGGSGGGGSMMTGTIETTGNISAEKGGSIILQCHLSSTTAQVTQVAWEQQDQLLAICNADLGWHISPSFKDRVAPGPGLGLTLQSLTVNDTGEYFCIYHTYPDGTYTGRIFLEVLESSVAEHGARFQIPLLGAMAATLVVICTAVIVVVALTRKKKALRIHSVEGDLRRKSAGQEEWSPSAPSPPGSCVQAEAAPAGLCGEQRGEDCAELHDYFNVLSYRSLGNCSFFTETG
Here is the method: (§1) For flow cytometry analysis of the anti-hTIGIT antibody binding epitope, HA-tagged human TIGIT proteins with or without single amino acid mutation were transiently transfected into CHO-K1 cells. After 24 hr, transfected cells were suspended in HBSS buffer (Thermo Fisher Scientific, Cat#14175095), and incubated with HuTIG1-IgG1.AA antibody at varying concentrations in 50 μL volume. After 1 hr incubation at 4° C., cells were washed and a second incubation with 50 μL Alexa488 conjugated anti-human IgG(H+L) secondary antibody (Thermo Fisher Scientific, Cat#A-11013) was performed to detect cells bound by antibody. Cells were incubated with an anti-HA antibody (Sigma, Cat# H7411) as a positive control, and non-transfected CHO-K1 cells were used as a negative control. The cells were analyzed on an Attune NxT Cytometer (Thermo Fisher Scientific) and the data were processed using FlowJo software. For each mutant, the saturating antibody binding MFI (mean fluorescence intensity) were normalized to 100% POC (percent of control), and no primary antibody binding control MFI were normalized to 0% POC. Data were then fit to a four parameter non-linear sigmoidal curve using GraphPad Prism 7 curve fitting using following formula: Y=Bottom+(Top−Bottom)/(1+10^{((Log EC}^₅₀^{-X)*HillSlope)}).
(§2) All of these residues co-locate to one discrete region on the front ([…] structure of the TIGIT IgV extracellular domain (FIG. 28).

The target of the next test is T2, H55A.
T2 construct: also called HA-tagged human TIGIT with mutation H55A, on CHO-K1 cells
T2 single chain: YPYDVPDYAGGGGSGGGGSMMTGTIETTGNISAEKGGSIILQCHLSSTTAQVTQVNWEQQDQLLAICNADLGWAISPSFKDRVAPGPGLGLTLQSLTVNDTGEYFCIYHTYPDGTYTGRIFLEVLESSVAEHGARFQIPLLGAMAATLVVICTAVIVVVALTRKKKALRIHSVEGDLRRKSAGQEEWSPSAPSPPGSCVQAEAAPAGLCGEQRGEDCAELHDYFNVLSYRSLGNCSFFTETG
How it is done:
as §1, §2

A further test addresses T3, L52A.
T3 construct: also called HA-tagged human TIGIT with mutation L52A, on CHO-K1 cells
T3 single chain: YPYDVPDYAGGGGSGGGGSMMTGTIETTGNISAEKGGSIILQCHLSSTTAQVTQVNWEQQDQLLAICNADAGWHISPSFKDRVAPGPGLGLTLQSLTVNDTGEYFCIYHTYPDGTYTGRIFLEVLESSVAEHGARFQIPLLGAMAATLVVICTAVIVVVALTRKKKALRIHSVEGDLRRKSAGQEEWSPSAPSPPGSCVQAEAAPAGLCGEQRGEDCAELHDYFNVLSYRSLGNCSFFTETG
How it is done:
as §1, §2

The target of a further test is T4, T34A.
T4 construct: also called HA-tagged human TIGIT with mutation T34A, on CHO-K1 cells
T4 single chain: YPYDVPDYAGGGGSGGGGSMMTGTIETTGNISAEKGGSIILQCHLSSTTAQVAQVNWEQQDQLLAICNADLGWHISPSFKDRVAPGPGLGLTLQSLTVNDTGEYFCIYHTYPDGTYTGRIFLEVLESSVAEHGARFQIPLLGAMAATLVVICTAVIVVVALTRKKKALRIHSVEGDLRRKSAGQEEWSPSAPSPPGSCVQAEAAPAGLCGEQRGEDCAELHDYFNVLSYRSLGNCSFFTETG
How it is done: as §1, §2

Test [2] concerns the target T5, HA-tagged human TIGIT with mutation H90A, on CHO-K1 cells (human, UniProt Q495A1 22-244).
T5 construct: Built as for m17
T5 sequence: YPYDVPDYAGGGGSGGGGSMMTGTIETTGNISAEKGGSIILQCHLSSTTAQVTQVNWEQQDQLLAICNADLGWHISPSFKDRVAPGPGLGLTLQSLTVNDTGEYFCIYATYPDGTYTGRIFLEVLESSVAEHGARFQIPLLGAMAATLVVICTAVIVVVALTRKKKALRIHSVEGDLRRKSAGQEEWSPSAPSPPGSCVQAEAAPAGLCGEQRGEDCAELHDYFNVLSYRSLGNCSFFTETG
Here is the method:
as §1, §2

The target of a further test is T6, E39A.
T6 construct: also called HA-tagged human TIGIT with mutation E39A, on CHO-K1 cells
T6 single chain: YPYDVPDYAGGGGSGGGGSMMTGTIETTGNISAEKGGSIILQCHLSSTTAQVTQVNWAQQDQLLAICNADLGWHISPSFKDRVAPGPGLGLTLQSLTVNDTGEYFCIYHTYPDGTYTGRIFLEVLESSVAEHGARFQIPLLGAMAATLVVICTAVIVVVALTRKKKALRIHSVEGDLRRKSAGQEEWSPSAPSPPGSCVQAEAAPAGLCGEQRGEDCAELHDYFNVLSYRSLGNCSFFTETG
How it is done:
as §1, §2

B1: HuTIG1-IgG1.AA (humanized IgG1/kappa form of TIG1, L234A/L235A) (antibody)
heavy: not shown
light: DIQMTQSPSSLSASVGDRVTITCRASKSISKYLAWYQQKPGKAPKLLIYSGSTLQSGVPSRFSGSGSGTDFTLTISSLQPEDFATYYCQQHNEYPWTFGGGTKVEIKRTVAAPSVFIFPPSDEQLKSGTASVVCLLNNFYPREAKVQWKVDNALQSGNSQESVTEQDSKDSTYSLSSTLTLSKADYEKHKVYACEVTHQGLSSPVTKSFNRGEC
notes: Mature full chains; also called humanized TIG1
In the case of B1, the EC50 (commonly the concentration needed to bring the measured effect to its halfway point) in test [1] turned out to be 126 nM; with H55A, 1.19 nM; in the test with L52A, 2.67 nM; with T34A, 0.577 nM; in test [2] it was 104 nM; with E39A, 1.58 nM.
